Target: anti-BBP1 polyclonal antibody
Assay: competitive ELISA, free peptide against coated BBP1-biotin peptide for the anti-BBP1 polyclonal antibody

B1: BBP1 peptide (SEQ ID No. 7) (peptide)
peptide: HSYSTNSFSRTTNG
lowest level detected: 2.5 µg/mL
